Consider one molecule from patent US20120058906A1 (published 2012).

Assay [1] addresses T1, rHuman IGF-1 sR (IGF-1 sR), CF (R&D Systems Cat#391-GR) (human, UniProt P08069 31-932).
T1 construct: Bought soluble receptor; also called insulin-like growth factor-1 soluble receptor; IGF-R1
Description: ECL (MSD multi-spot), antigen spotted on plate; Fab 8 nM; blank 1117.

Assay [2] has as its target T2, rHuman HGF R/c-MET/Fc Chimera, CF (R&D Systems Cat#358-MT/CF) (human, UniProt P08581 25-932).
T2 construct: Bought protein; also called HGF R/Fc; hepatocyte growth factor receptor; Fc part of the bought chimera not given
The assay is described as above.

For assay [3], the target named is T3, rHuman EGF R/Fc Chimera, CF (R&D Systems Cat#344-ER) (human, UniProt P00533 25-645).
T3 construct: Bought protein; also called epidermal growth factor receptor; Fc part of the bought chimera not given
Described as above.

Assay [4] has as its target T4, Recombinant Human DLL4 (R&D Systems Cat#1506-D4/CF) (human, UniProt Q9NR61 27-524).
T4 construct: Bought protein; also called rHuman DLL4; delta-like protein 4
The assay is described as above.

Assay [5] deals with T1, rHuman IGF-1 sR (IGF-1 sR), CF (R&D …). Description: ECL (MSD multi-spot), antigen spotted on plate; Fab 200 nM; blank 1787.
Assay [6] has as its target T2, rHuman HGF R/c-MET/Fc Chimera, CF (R&D …). The assay is described as above.
The target in assay [7] is T3, rHuman EGF R/Fc Chimera, CF (R&D …). The assay is described as above.
The target of assay [8] is T4, Recombinant Human DLL4 (R&D Systems …). The description is as above.
The target in assay [9] is T1, rHuman IGF-1 sR (IGF-1 sR), CF (R&D …). Description: ECL (MSD multi-spot), antigen spotted on plate; Fab 1000 nM; blank 2186.
For assay [10], the target named is T2, rHuman HGF R/c-MET/Fc Chimera, CF (R&D …). The assay is described as above.
Assay [11] addresses T3, rHuman EGF R/Fc Chimera, CF (R&D …). The assay is described as above.
The target in assay [12] is T4, Recombinant Human DLL4 (R&D Systems …). The description is as above.
Assay [13] has as its target T1, rHuman IGF-1 sR (IGF-1 sR), CF (R&D …). Nature of the assay: ECL (MSD multi-spot), antigen spotted on plate; Fab 1.6 nM; blank 713.
The target of assay [14] is T2, rHuman HGF R/c-MET/Fc Chimera, CF (R&D …). The description is as above.
The target in assay [15] is T3, rHuman EGF R/Fc Chimera, CF (R&D …). The description is as above.
The target in assay [16] is T4, Recombinant Human DLL4 (R&D Systems …). Described as above.
Assay [17] has as its target T1, rHuman IGF-1 sR (IGF-1 sR), CF (R&D …). Nature of the assay: ECL (MSD multi-spot), antigen spotted on plate; Fab 40 nM; blank 1442.
Assay [18] addresses T2, rHuman HGF R/c-MET/Fc Chimera, CF (R&D …). The assay is described as above.
Assay [19] has as its target T3, rHuman EGF R/Fc Chimera, CF (R&D …). Described as above.
In assay [20] the target is T4, Recombinant Human DLL4 (R&D Systems …). Described as above.
The target of assay [21] is T1, rHuman IGF-1 sR (IGF-1 sR), CF (R&D …). Nature of the assay: ECL (MSD multi-spot), antigen spotted on plate; Fab 0.32 nM; blank 518.
The target in assay [22] is T2, rHuman HGF R/c-MET/Fc Chimera, CF (R&D …). The description is as above.
Assay [23] deals with T3, rHuman EGF R/Fc Chimera, CF (R&D …). The assay is described as above.
Assay [24] has as its target T4, Recombinant Human DLL4 (R&D Systems …). The assay is described as above.
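Also: blank spot per well as comparator with Hit at signal to blank ratio of 4 or more.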

B1: Fab VH1-46_IGHD6-6*01>1_IGHJ1*01_S104F & L6_IGKJ1*01 (Fab, V domains shown)
VH: QVQLVQSGAEVKKPGASVKVSCKASGYTFTSYYMHWVRQAPGQGLEWMGIINPSGGSTSYAQKFQGRVTMTRDTSTSTVYMELSSLRSEDTAVYYCAREEYSSFSAEYFQHWGQGTLVTVSS
VL: not shown
notes: Expressed in E. coli as a Fab; The heavy chain also carries the CH1 with Flag and His tags from Plasmid A, and the light chain the kappa CL from Plasmid C; also called VH1-46_IGHD6-6*01_IGHJ1*01 S104F & L6_IGKJ1*01; IGHV1-46*01
Turning to B1, the ECL signal in [1] stood at 1520; in assay [2], 1620; in [3], 1470; in assay [4], 44800; in [5], 2780; in assay [6] it was 2840. Further, the ECL signal in assay [7] was determined as 2920; in [8], 58700; in assay [9], 3070; in assay [10], 3310; in assay [11], 3580; in assay [12], 35300. The ECL signal was 966 in [13]; 861 in [14]; 987 in assay [15]; 5920 in [16]; 2140 in assay [17]; 2110 in assay [18]. In addition, the ECL signal was found to be 2300 in assay [19]; 62000 in [20]; 630 in assay [21]; 710 in assay [22]; 709 in assay [23]; 916 in [24].
